A short description of the data set: self-splicing fitness, log relative to wild type (ln ratio); higher = more splicing; Tetrahymena group I intron in knt gene, E. coli kanamycin selection, DiMSum; sequences stand for … in CUCUCU…GGAGGGAAAAGUUAUCAGGCAUGCACCUGGUAGCUAGUCUUUAAACCAAUAGAUUGCAUCGGUUUAAAAGGCAAGACCGUCAAAUUGCGGGAAAGGGGUCAACAGCCGUUCAGUACCAAGUCUCAGGGGAAACUUUGAGAUGGCCUUGCAAAGGGUAUGGUAAUAAGCUGACGGACAUGGUCCUAACCACGCAGCCAAGUCCUAAGUCAACAGAUCUUCUGUUGAUAUGGAUGCAGUUCACAGACUAAAUGUCGGUCGGGGAAGAUGUAUUCUUCUCAUAAGAUAUAGUCGGACCUCUCCUUAAUGGGAGCUAGCGGAUGAAGUGAUGCAACACUGGAGCCGCUGGGAACUAAUUUGUAUGCGAAAGUAUAUUGAUUAGUUUUGGAGUACUCGUGGUCG
In short, it runs like this: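 A randomised library covering all eight P1ex-region intron nucleotides was built with the intron in the knt kanamycin-resistance gene on pET-22b(+) and held in E. coli BL21(DE3). Cells were grown overnight at 37°C or 30°C on LB agar, with or without 25 μg/mL kanamycin, plus 100 μg/mL carbenicillin, 50 μM IPTG and 0.2% rhamnose, and pooled colonies were amplicon-sequenced on an Illumina HiSeq 2500. DiMSum fitness is the error-weighted combination of wild-type-normalised replicate fold changes, kanamycin versus none.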

Experimental findings from the supplement of paper PMC7877785 are described below.

± gives the uncertainty stated by the source.

For CGGCAGCAAUAUUACGGGCC, the “self-splicing fitness (ln)” value (30 °C) is -1.55 ± 0.2 and the “self-splicing fitness (ln)” value (37 °C) was -1.98 ± 0.32.

As for CUUGAGCAAUAUUACGAGAU, the “self-splicing fitness (ln)” value by setting is: (30 °C) -3.68 ± 0.37; (37 °C) -0.585 ± 0.15. For CGCGAGCAAUAUUACGUGGA the same measures were -2.79 ± 0.16 and -3.01 ± 0.34. For CUAGAGCAAUAUUACGUUAU the same measures were -3.29 ± 0.16 and -2.3 ± 0.23. The matching figures for GGCAAGCAAUAUUACGAGCG: -0.697 ± 0.073 and 0.427 ± 0.097. In the case of CCCUAGCAAUAUUACGGAUU, the “self-splicing fitness (ln)” value (30 °C) is -4.34 ± 0.23 and the “self-splicing fitness (ln)” value (37 °C) was -2.26 ± 0.16.

Take UCGAAGCAAUAUUACGGACC: the “self-splicing fitness (ln)” value is, setting by setting: (30 °C) -3.46 ± 0.33; (37 °C) -2.02 ± 0.34. For ACGAAGCAAUAUUACGCCGU the same measures were -3.86 ± 0.37 and -1.57 ± 0.23.

For GCGGAGCAAUAUUACGGGAG, the “self-splicing fitness (ln)” value reads like this: (30 °C) -2.36 ± 0.42; (37 °C) -0.916 ± 0.48. With CCUCAGCAAUAUUACGGGCA, the “self-splicing fitness (ln)” value (37 °C) was -2.2 ± 0.24. Turning to UGUCAGCAAUAUUACGUUAC, the “self-splicing fitness (ln)” value was -3.4 ± 0.27 (30 °C) and -2.77 ± 0.43 (37 °C). The matching figures for CGAAAGCAAUAUUACGCUGA: -3.09 ± 0.22 and -1.54 ± 0.19.

GCAGAGCAAUAUUACGUAAC: the “self-splicing fitness (ln)” value runs as follows: (30 °C) -2.84 ± 0.29; (37 °C) 0.113 ± 0.22. For UAGAAGCAAUAUUACGACAA the same measures were -0.512 ± 0.1 and -0.213 ± 0.11.

In the case of ACGAAGCAAUAUUACGGGAA, the “self-splicing fitness (ln)” value was -3.09 ± 0.19 (30 °C) and -1.31 ± 0.13 (37 °C). For CUGAAGCAAUAUUACGUGUA the same measures were -4.08 ± 0.24 and -2.12 ± 0.2. For GAUUAGCAAUAUUACGGAAC the same measures were -2.84 ± 0.36 and -1.7 ± 0.33. UUUUAGCAAUAUUACGAUCG: the “self-splicing fitness (ln)” value (30 °C) was -0.15 ± 0.26. Take GCGGAGCAAUAUUACGUAUU: the “self-splicing fitness (ln)” value (30 °C) is -3.85 ± 0.25 and the “self-splicing fitness (ln)” value (37 °C) was -2.48 ± 0.41.

For the sequence CCGCAGCAAUAUUACGUGCG, the “self-splicing fitness (ln)” value reads like this: (30 °C) -4.67 ± 0.22; (37 °C) -2.86 ± 0.15.

With GAUUAGCAAUAUUACGACCU, the “self-splicing fitness (ln)” value is -0.343 ± 0.13 (30 °C) and -0.777 ± 0.18 (37 °C). For AAUUAGCAAUAUUACGUAUA the same measures were -1.83 ± 0.28 and -1.32 ± 0.38. For AGGCAGCAAUAUUACGCGGG the same measures were -2.65 ± 0.14 and -2.55 ± 0.17. For UUAAAGCAAUAUUACGUUUC the same measures were -3.92 ± 0.39 and -1.18 ± 0.31.

Consider GCGCAGCAAUAUUACGGUGU, for which the “self-splicing fitness (ln)” value is -2.83 ± 0.14 (30 °C) and -2.47 ± 0.17 (37 °C). As for GGGUAGCAAUAUUACGUACG, the “self-splicing fitness (ln)” value was -0.676 ± 0.23 (30 °C) and -0.536 ± 0.29 (37 °C). For GGGAAGCAAUAUUACGGCGG the same measures were -1.2 ± 0.14 and -1.94 ± 0.24. For UACGAGCAAUAUUACGGGCG the same measures were -0.999 ± 0.12 and -0.902 ± 0.14.

CAAUAGCAAUAUUACGGAGA: the “self-splicing fitness (ln)” value is, setting by setting: (30 °C) -2.75 ± 0.33; (37 °C) -2.08 ± 0.43. The matching figures for CGCAAGCAAUAUUACGGACU: -1.39 ± 0.08 and 0.158 ± 0.082.

As for GCGAAGCAAUAUUACGUUGG, the “self-splicing fitness (ln)” value was -4.02 ± 0.17 (30 °C) and -2.97 ± 0.18 (37 °C). The matching figures for CGAAAGCAAUAUUACGCGCC: -1.85 ± 0.21 and 0.0231 ± 0.24. Take AAAAAGCAAUAUUACGAUCU: the “self-splicing fitness (ln)” value by setting is: (30 °C) 0.127 ± 0.055; (37 °C) 0.246 ± 0.075. For GUCGAGCAAUAUUACGUAAG, the “self-splicing fitness (ln)” value by setting is: (30 °C) -2.59 ± 0.14; (37 °C) -1.34 ± 0.18. The matching figures for AUUGAGCAAUAUUACGUAAU: -1.68 ± 0.13 and -0.364 ± 0.19. The matching figures for GGCAAGCAAUAUUACGCACA: -0.684 ± 0.09 and 0.564 ± 0.11.

With GGGAAGCAAUAUUACGCUUC, the “self-splicing fitness (ln)” value (30 °C) was -3.32 ± 0.4. On the same count and under the same terms, under GUGGAGCAAUAUUACGUGUU stands -4.54 ± 0.47. For the sequence CAGGAGCAAUAUUACGCGGU, the “self-splicing fitness (ln)” value (37 °C) is -3.29 ± 0.47.
